Assays:
[1] = molecular target: T1, Recombinant His-tagged human IL-6Rα (human, UniProt P08887 20-365, limits assumed); assay: competition ELISA: inhibition of IL-6 binding to coated IL-6Rα (cis-binding)
T1 construct: Bought from GenScript; also called sIL-6Rα; not shown: His tag
T1 sequence (looked up): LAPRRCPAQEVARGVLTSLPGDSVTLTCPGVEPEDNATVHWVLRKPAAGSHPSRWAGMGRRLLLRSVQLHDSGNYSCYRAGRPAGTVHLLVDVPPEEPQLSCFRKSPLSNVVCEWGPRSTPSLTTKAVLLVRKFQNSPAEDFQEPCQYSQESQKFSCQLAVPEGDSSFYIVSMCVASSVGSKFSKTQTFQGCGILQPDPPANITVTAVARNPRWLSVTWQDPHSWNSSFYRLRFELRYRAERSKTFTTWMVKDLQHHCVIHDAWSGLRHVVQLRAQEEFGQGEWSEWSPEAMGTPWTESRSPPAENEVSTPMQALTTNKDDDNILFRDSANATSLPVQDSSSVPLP

[2] = molecular target: T1, Recombinant His-tagged human IL-6Rα; assay: competition ELISA: inhibition of IL-6/IL-6Rα complex binding to coated gp130-Fc (trans-binding)

IC50 [1]: 0.935 µg/mL | IC50 [2]: 0.1 µg/mL
B1: Tocilizumab (antibody, V domains shown)
VH: QVQLQESGPGLVRPSQTLSLTCTVSGYSITSDHAWSWVRQPPGRGLEWIGYISYSGITTYNPSLKSRVTMLRDTSKNQFSLRLSSVTAADTAVYYCARSLARTTAMDYWGQGSLVTVSS
VL: DIQMTQSPSSLSASVGDRVTITCRASQDISSYLNWYQQKPGKAPKLLIYYTSRLHSGVPSRFSGSGSGTDFTFTISSLQPEDIATYYCQQGNTLPYTFGQGTKVEIKR

Source: patent US20220105163A1 (UNITED BIOMEDICAL, published 2022)
